Key:
Rbpj K195E = Rbpj K195E (mouse, UniProt P31266 53-474, K195E); experiment: ITC; 10 C; ITC: 50 mM sodium phosphate, 150 mM NaCl, 10 C (pH not stated); EMSA purified: 3.4 nM probe, 10 min room temperature; EMSA IVT: 10 mM Tris-HCl pH 7.5, 100 mM NaCl, 0.1 mM EDTA, 0.5 mM DTT, 4% glycerol, poly(dI-dC); details: protein: recombinant; tags: GST removed by PreScission (pGEX-6P1); blunt
Rbpj WT (core) [1] = molecular target: T1, Rbpj WT (core) (mouse, UniProt P31266 53-474); experiment: as above; details: protein: recombinant; tags: GST removed by PreScission (pGEX-6P1); blunt
Rbpj E89G = Rbpj E89G (mouse, UniProt P31266 53-474, E89G); experiment: as above; details: protein: recombinant; tags: GST removed by PreScission (pGEX-6P1); blunt
Rbpj WT (core) [2] = molecular target: T1, Rbpj WT (core); experiment: EMSA; ITC: 50 mM sodium phosphate, 150 mM NaCl, 10 C (pH not stated); EMSA purified: 3.4 nM probe, 10 min room temperature; EMSA IVT: 10 mM Tris-HCl pH 7.5, 100 mM NaCl, 0.1 mM EDTA, 0.5 mM DTT, 4% glycerol, poly(dI-dC); details: protein: recombinant; tags: GST removed by PreScission (pGEX-6P1); label: IRDye-700 at 5' end of strand 2; blunt
Flag-Rbpj WT full length = Flag-Rbpj WT full length (mouse, UniProt P31266 1-526); experiment: EMSA; poly(dI-dC); single and double occupancy; anti-Flag supershift; ITC: 50 mM sodium phosphate, 150 mM NaCl, 10 C (pH not stated); EMSA purified: 3.4 nM probe, 10 min room temperature; EMSA IVT: 10 mM Tris-HCl pH 7.5, 100 mM NaCl, 0.1 mM EDTA, 0.5 mM DTT, 4% glycerol, poly(dI-dC); details: protein: ivt; tags: Flag; label: 32P; 5' overhang 4 nt both ends
Flag-Rbpj WT full length, sequence (P31266 whole entry): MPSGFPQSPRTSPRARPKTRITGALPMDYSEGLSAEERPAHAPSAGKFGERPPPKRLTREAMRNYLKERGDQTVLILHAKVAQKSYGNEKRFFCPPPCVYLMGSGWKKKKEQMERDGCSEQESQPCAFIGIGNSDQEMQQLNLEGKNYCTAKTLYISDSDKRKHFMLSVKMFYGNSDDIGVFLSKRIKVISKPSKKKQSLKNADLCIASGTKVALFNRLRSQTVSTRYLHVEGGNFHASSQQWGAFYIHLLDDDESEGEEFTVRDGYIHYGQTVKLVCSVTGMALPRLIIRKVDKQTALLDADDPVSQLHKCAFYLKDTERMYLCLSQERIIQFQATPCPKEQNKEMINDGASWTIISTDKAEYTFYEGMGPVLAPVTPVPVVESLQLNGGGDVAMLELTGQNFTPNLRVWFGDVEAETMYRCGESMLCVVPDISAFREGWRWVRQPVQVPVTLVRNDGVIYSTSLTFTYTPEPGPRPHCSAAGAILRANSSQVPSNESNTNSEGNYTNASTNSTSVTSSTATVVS

T1 sequence (P31266 53-474): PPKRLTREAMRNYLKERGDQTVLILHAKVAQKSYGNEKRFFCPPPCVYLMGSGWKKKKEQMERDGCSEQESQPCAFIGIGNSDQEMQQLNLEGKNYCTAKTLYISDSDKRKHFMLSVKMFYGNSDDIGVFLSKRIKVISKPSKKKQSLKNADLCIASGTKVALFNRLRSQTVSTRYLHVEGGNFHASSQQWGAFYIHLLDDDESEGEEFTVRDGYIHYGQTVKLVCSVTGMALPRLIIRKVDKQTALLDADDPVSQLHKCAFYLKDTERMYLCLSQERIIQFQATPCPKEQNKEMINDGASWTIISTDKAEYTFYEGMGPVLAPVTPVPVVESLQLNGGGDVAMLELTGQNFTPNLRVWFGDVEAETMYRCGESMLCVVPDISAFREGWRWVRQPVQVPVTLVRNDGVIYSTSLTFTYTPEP
Rbpj K195E, sequence (P31266 53-474 K195E): as the sequence (P31266 53-474) above, with K143E counted along it
Rbpj E89G, sequence (P31266 53-474 E89G): as the sequence (P31266 53-474) above, with E37G counted along it

B1: ITC 20-mer CSL duplex (dsDNA)
DNA 1: GGCACCGTGGGAAACTAGTG
DNA 2: CACTAGTTTCCCACGGTGCC
With B1 the Kd (Rbpj K195E) was 1160 ± 258 nM, the Kd (Rbpj WT (core) [1]) was 74 ± 10.8 nM and the Kd (Rbpj E89G) was 440 ± 86.8 nM.

B2: EMSA high affinity CSL probe (dsDNA)
DNA 1: CGAACGAGGCAAACCTAGGCTAGAGGCACCGTGGGAAACTAGTGCGGGCGTGGCT
DNA 2: AGCCACGCCCGCACTAGTTTCCCACGGTGCCTCTAGCCTAGGTTTGCCTCGTTCG
B2: binds (Rbpj WT (core) [2]).

B3: EMSA probe with 2 RBPJ sites (dsDNA)
DNA 1: CCTGGAACTATTTTCCCACGGTGCCCTTCCGCCCATTTTCCCACGAGTCG
DNA 2: CTCGCGACTCGTGGGAAAATGGGCGGAAGGGCACCGTGGGAAAATAGTTC
B3: binds (Flag-Rbpj WT full length).
